The record followed here is PMC10786891, “Massively parallel profiling of RNA-targeting CRISPR-Cas13d”.

To fix the notation:
B1: target 1 MT 5'PFS AGG 3'PFS ACC (mixed)
RNA 1: CACCCGUGCAAAAAUGCAGGGGUCUAAAACUGAGCGGAUAACCUCUCUAUGG
RNA 2: GGGAAUGGAUCCACAUCUACGAAUUCAGGCCAUAGAGAGGUUAUCCGCUCAACCAGAUCGGAAGAGCACACGU
B2: target 1 insG 3' of 18,insG 3' of 10 (mixed)
RNA 1: B1 RNA 1
RNA 2: GGGAAUGGAUCCACAUCUACGAAUUCGUACCAUAGGAGAGGUUGAUCCGCUCACCGAGAUCGGAAGAGCACACGU
B3: target 1 MT 5'PFS ACA 3'PFS AUC (mixed)
RNA 1: B1 RNA 1
RNA 2: B1 RNA 2 with G28C, G29A, C53U
B4: target 1 MT 5'PFS UUA 3'PFS AUC (mixed)
RNA 1: B1 RNA 1
RNA 2: B1 RNA 2 with A27U, G28U, G29A, C53U
B5: target 1 MT 5'PFS UUA 3'PFS AUA (mixed)
RNA 1: B1 RNA 1
RNA 2: B1 RNA 2 with A27U, G28U, G29A, C53U, C54A
B6: target 1 MT 5'PFS AAA 3'PFS ACU (mixed)
RNA 1: B1 RNA 1
RNA 2: B1 RNA 2 with G28A, G29A, C54U
B7: target 1 MT 5'PFS UUA 3'PFS AUG (mixed)
RNA 1: B1 RNA 1
RNA 2: B1 RNA 2 with A27U, G28U, G29A, C53U, C54G
B8: target 1 MT 5'PFS GUU 3'PFS UGA (mixed)
RNA 1: B1 RNA 1
RNA 2: B1 RNA 2 with A27G, G28U, G29U, A52U, C53G, C54A
B9: target 1 MT 5'PFS AAA 3'PFS ACC (mixed)
RNA 1: B1 RNA 1
RNA 2: B1 RNA 2 with G28A, G29A
B10: target 1 MT 5'PFS GAG 3'PFS CGG (mixed)
RNA 1: B1 RNA 1
RNA 2: B1 RNA 2 with A27G, G28A, A52C, C53G, C54G
B11: target 1 MT 5'PFS UCG 3'PFS AUC (mixed)
RNA 1: B1 RNA 1
RNA 2: B1 RNA 2 with A27U, G28C, C53U
B12: target 1 MT 5'PFS AGG 3'PFS CAG (mixed)
RNA 1: B1 RNA 1
RNA 2: B1 RNA 2 with A52C, C53A, C54G
B13: target 1 MT 5'PFS CCU 3'PFS AGA (mixed)
RNA 1: B1 RNA 1
RNA 2: B1 RNA 2 with A27C, G28C, G29U, C53G, C54A
B14: target 1 MT 5'PFS UUA 3'PFS CGC (mixed)
RNA 1: B1 RNA 1
RNA 2: B1 RNA 2 with A27U, G28U, G29A, A52C, C53G
B15: target 1 insU 3' of 13,insU 3' of 13 (mixed)
RNA 1: B1 RNA 1
RNA 2: B2 RNA 2 with G36A, A37G, G38A, A39G, G40U, G41U, U42G, G44U
B16: target 1 MT 5'PFS GCA 3'PFS UCG (mixed)
RNA 1: B1 RNA 1
RNA 2: B1 RNA 2 with A27G, G28C, G29A, A52U, C54G
B17: target 1 MT 5'PFS GCA 3'PFS UCU (mixed)
RNA 1: B1 RNA 1
RNA 2: B1 RNA 2 with A27G, G28C, G29A, A52U, C54U
B18: target 1 MT 5'PFS CCG 3'PFS CAC (mixed)
RNA 1: B1 RNA 1
RNA 2: B1 RNA 2 with A27C, G28C, A52C, C53A
B19: target 1 MT 5'PFS CAA 3'PFS CUC (mixed)
RNA 1: B1 RNA 1
RNA 2: B1 RNA 2 with A27C, G28A, G29A, A52C, C53U
B20: target 1 MT 5'PFS AGG 3'PFS ACU (mixed)
RNA 1: B1 RNA 1
RNA 2: B1 RNA 2 with C54U
B21: target 1 MT 5'PFS GUU 3'PFS UGC (mixed)
RNA 1: B1 RNA 1
RNA 2: B1 RNA 2 with A27G, G28U, G29U, A52U, C53G
B22: target 1 MT 5'PFS CCU 3'PFS CGC (mixed)
RNA 1: B1 RNA 1
RNA 2: B1 RNA 2 with A27C, G28C, G29U, A52C, C53G
B23: target 1 MT 5'PFS AAA 3'PFS ACA (mixed)
RNA 1: B1 RNA 1
RNA 2: B1 RNA 2 with G28A, G29A, C54A
B24: target 1 MT 5'PFS GCA 3'PFS UCA (mixed)
RNA 1: B1 RNA 1
RNA 2: B1 RNA 2 with A27G, G28C, G29A, A52U, C54A
B25: target 1 MT 5'PFS CAA 3'PFS CUG (mixed)
RNA 1: B1 RNA 1
RNA 2: B1 RNA 2 with A27C, G28A, G29A, A52C, C53U, C54G
B26: target 1 MT 5'PFS UCA 3'PFS CCG (mixed)
RNA 1: B1 RNA 1
RNA 2: B1 RNA 2 with A27U, G28C, G29A, A52C, C54G
B27: target 1 insA 3' of 10,insG 3' of 3 (mixed)
RNA 1: B1 RNA 1
RNA 2: GGGAAUGGAUCCACAUCUACGAAUUCGUACCAUAGAGAGGUUAAUCCGCUGCACCGAGAUCGGAAGAGCACACGU
B28: target 1 MT 5'PFS AAG 3'PFS AAG (mixed)
RNA 1: B1 RNA 1
RNA 2: B1 RNA 2 with G28A, C53A, C54G
B29: target 1 MT 5'PFS GGA 3'PFS GAG (mixed)
RNA 1: B1 RNA 1
RNA 2: B1 RNA 2 with A27G, G29A, A52G, C53A, C54G
B30: target 1 MT 5'PFS CCG 3'PFS ACA (mixed)
RNA 1: B1 RNA 1
RNA 2: B1 RNA 2 with A27C, G28C, C54A
B31: target 1 MT 5'PFS AAA 3'PFS ACG (mixed)
RNA 1: B1 RNA 1
RNA 2: B1 RNA 2 with G28A, G29A, C54G
B32: target 1 MT 5'PFS GUU 3'PFS UGU (mixed)
RNA 1: B1 RNA 1
RNA 2: B1 RNA 2 with A27G, G28U, G29U, A52U, C53G, C54U
B33: target 1 MT 5'PFS GAG 3'PFS CGA (mixed)
RNA 1: B1 RNA 1
RNA 2: B1 RNA 2 with A27G, G28A, A52C, C53G, C54A
B34: target 1 MT 5'PFS UCA 3'PFS CCC (mixed)
RNA 1: B1 RNA 1
RNA 2: B1 RNA 2 with A27U, G28C, G29A, A52C
B35: target 1 MT 5'PFS UUA 3'PFS AUU (mixed)
RNA 1: B1 RNA 1
RNA 2: B1 RNA 2 with A27U, G28U, G29A, C53U, C54U
B36: target 1 MT 5'PFS ACC 3'PFS UAC (mixed)
RNA 1: B1 RNA 1
RNA 2: B1 RNA 2 with G28C, G29C, A52U, C53A
B37: target 1 MT 5'PFS AAC 3'PFS CCG (mixed)
RNA 1: B1 RNA 1
RNA 2: B1 RNA 2 with G28A, G29C, A52C, C54G

Substitutions are numbered along the chain they refer to.

For this series, the target named is T1, EsCas13d, nuclease-dead (Eubacterium siraeum, UniProt B0MS50, R295A;H300A;R849A;H854A).
T1 sequence: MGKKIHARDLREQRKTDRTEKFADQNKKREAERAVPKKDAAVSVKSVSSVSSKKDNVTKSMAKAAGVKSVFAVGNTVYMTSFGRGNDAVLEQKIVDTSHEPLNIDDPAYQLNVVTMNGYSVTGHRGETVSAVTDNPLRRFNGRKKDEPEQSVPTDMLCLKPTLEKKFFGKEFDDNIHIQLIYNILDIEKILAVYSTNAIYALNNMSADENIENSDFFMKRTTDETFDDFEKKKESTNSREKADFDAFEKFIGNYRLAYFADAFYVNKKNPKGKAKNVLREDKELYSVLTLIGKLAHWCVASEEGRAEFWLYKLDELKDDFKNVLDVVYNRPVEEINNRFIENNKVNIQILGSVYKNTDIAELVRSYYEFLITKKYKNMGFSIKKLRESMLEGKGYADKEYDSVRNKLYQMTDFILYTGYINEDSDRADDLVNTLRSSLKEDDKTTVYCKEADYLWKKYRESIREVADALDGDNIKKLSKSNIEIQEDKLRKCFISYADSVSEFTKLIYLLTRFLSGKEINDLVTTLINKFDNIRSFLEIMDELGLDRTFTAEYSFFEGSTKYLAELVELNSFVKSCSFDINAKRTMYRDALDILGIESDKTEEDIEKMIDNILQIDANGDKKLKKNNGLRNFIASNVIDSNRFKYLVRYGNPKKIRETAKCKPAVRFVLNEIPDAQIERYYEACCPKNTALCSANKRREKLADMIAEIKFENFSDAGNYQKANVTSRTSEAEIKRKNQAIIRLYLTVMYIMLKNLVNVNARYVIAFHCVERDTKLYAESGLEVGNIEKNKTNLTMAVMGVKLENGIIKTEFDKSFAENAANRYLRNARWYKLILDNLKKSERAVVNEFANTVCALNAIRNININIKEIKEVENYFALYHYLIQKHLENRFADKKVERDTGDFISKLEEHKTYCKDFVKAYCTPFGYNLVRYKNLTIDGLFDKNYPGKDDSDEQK
Nature of the series: crRNA (strand 1, pre-loaded); Mg2+; 40 mM Tris-HCl pH 7.5, 150 mM NaCl, 6 mM MgCl2, 1 mM DTT, 0.1% Tween-20, 0.2 mg/ml BSA; 25 C; 10 min per concentration, then washed. The following applies: tags: His6-TwinStrep-SUMO cleaved; N-terminal SNAP kept (SNAP-Surface 488); label: 3' end held by stalled T7 RNA polymerase.
B1: binding was put at a Kd of 46.5 ± 22 nM.
For B2, the Kd (in general, the free concentration of one partner at which half of the binding sites on the other are occupied at equilibrium, for simple one-to-one binding) was found to be 61 ± 15 nM.
Then B3, with 56 ± 25.5 nM.
To B4 belongs 20.5 ± 5 nM; to B5, 77 ± 25 nM; to B6, 12.1 ± 2.6 nM.
Then B7, with 64.5 ± 23 nM.
B8 yielded a Kd of 16.8 ± 2.5 nM.
To B9 belongs 42 ± 13.5 nM; to B10, approximately 100 nM; to B11, 42 ± 13 nM.
Then B12, with approximately 41 nM.
Then B13, with 31.5 ± 14.5 nM; and B14, with 18 ± 7 nM.
Regarding B15, the Kd was found to be 6.5 ± 0.6 nM.
Then B16, with 13.7 ± 2.4 nM; and B17, with 10.6 ± 2.55 nM.
Take B18: the Kd amounted to 6.45 ± 2.75 nM.
Then B19, with approximately 25 nM; and B20, with 42 ± 12 nM.
Then B21, with 15.5 ± 2.7 nM.
Consider B22, for which the Kd was approximately 15.5 nM.
To B23 belongs 29.5 ± 14 nM; to B24, 11.8 ± 2.9 nM.
To B25 belongs 14.5 ± 5 nM.
Then B26, with approximately 25 nM; and B27, with 7.18 ± 0.25 nM; and B28, with 20.5 ± 4.5 nM.
B29 came in with a Kd of 19 ± 6 nM.
To B30 belongs 38.5 ± 13 nM; to B31, 18.6 ± 4.45 nM.
Molecule B32 showed a Kd of 34.5 ± 6.5 nM.
To B33 belongs approximately 49 nM; to B34, approximately 69 nM.
To B35 belongs 13.2 ± 2.1 nM; to B36, 31 ± 14.5 nM.
Then B37, with 19.5 ± 4.45 nM.
